Assay results taken from PMC5395669.

Experiments:
[1] = target: MBP-RctB F311P (Vibrio cholerae); assay: AUC
[2] = target: MBP-RctB F316P (Vibrio cholerae); assay: AUC
[3] = target: MBP-RctB K312P (Vibrio cholerae); assay: AUC
[4] = target: MBP-RctB S313P (Vibrio cholerae); assay: AUC
[5] = target: MBP-tagged RctB (wild type) (Vibrio cholerae (N16961 DNA as template)); assay: AUC
[6] = target: DnaK (added to the in vitro Co-IP reactions) (UniProt P0A6Y8); assay: Co-IP (amylose magnetic beads, Western blot with α-DnaK); settings: 1 µM RctB, 1 µM DnaJ, 2 µM DnaK, 100 µM ATP, buffer A pH 7.4, 4°C
[7] = target: RctB145–470 tryptic fragment (Vibrio cholerae); assay: AUC; sedimentation velocity, 50,000 rpm, 20°C; 20 mM Tris pH 8.0, 300 mM NaCl, 1 mM TCEP, 1 mM EDTA, 5 mM MgCl2; multiple concentrations (Fig. S4A)

Substance: MBP-RctB F311P (natural protein)
- stoichiometry N [1]: 2

Substance: MBP-RctB F316P (natural protein)
- stoichiometry N [2]: 2

Substance: MBP-RctB K312P (natural protein)
- stoichiometry N [3]: 2

Substance: MBP-RctB S313P (natural protein)
- stoichiometry N [4]: 2

Substance: MBP-tagged RctB (wild type) (natural protein)
- stoichiometry N [5]: 2

Substance: MBP-tagged RctB (wild type) H157A; E158A; H159A; G160A; L161A; N162A; T163A
- ratio to parent [6]: 0.3

Substance: MBP-tagged RctB (wild type) L129A; V130A; T131A; E132A; S133A; V134A; K135A
- ratio to parent [6]: 0.9

Substance: MBP-tagged RctB (wild type) P164A; P165A; M167A; K168A; D169A; E170A
- ratio to parent [6]: 0.6

Substance: MBP-tagged RctB (wild type) Q136A; N137A; E138A; K139A; Q140A; K141A; R142A
- ratio to parent [6]: 0.8

Substance: MBP-tagged RctB (wild type) Q150A; V151A; N152A; Q153A; R154A; L155A; L156A
- ratio to parent [6]: 0.4

Substance: MBP-tagged RctB (wild type) S143A; K144A; L146A; Q148A; T149A
- ratio to parent [6]: 0.8

Substance: RctB145–470 tryptic fragment (domain or fragment)
- stoichiometry N [7]: 2
